Experimental data published in publication PMC5798300.

Target: (2S)-methylsuccinyl-CoA dehydrogenase from Paracoccus denitrificans, wild type, as used for analytical size-exclusion chromatography (Paracoccus denitrificans)
Test: SEC; analytical; Superdex 200 Increase 10/300 GL, 100 µl at 2 mg/ml, 0.7 ml/min, 20 mM Tris-HCl pH 7.9, 200 mM NaCl; enzymes incubated with 500 µM FAD for 1 h on ice beforehand; calibrated with a gel filtration standard

stoichiometry N: 2
Substance: (2S)-methylsuccinyl-CoA dehydrogenase from Paracoccus denitrificans, wild type, as used for analytical size-exclusion chromatography (enzyme)
